Results from the nanobody polyreactivity screen of Harvey et al. (2022).

assay: yeast display, Sf9 membrane polyspecificity reagent, FACS + sequencing; frameworks hold sequencing errors
In short: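 In a synthetic yeast display library (Saccharomyces cerevisiae BJ5465), nanobody expression was induced with galactose for 36–48 hours. FACS gates were set low and high (top ~1%) using anti-HA fluorescence for expression and streptavidin fluorescence for binding of the Sf9 membrane reagent. Each polyreactivity label is drawn from the gate of origin.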

Row | Sequence | polyreactivity (PSR sort gate)
1 | QVQLVESRGGLVQAGGSLRLSCAASGSTFSANTMGWNRQAPGKERELVAGITNTGDTYYADSVKGRFTLSRDNAKNTVYLQMNSLKPEDTAVYYCAADSWRLTDGAYWSTVYYWGQGNQVTVSS | low polyreactivity
2 | QVQLVESGGGLVQAGGSLRLSCAASGSTFYRYTMRWYRQAPGKERELVASIRWTGGRTNYADSVKGRFTISRDNAKNTVYLQMNSLKPEDTAVYYCAAYLKYPYAASYGSWGQGTQVTVSS | high polyreactivity
3 | QLQLEESGGGLVQAGGSLRISCDASGTIFGNYAMGWYRQAPGKERELVAAITGSGGRTYYADSVKGRFTISRDNAKNTVYLQMNSLKPEDTAVYYCAARSYGRWYYTLYNYWGQGTQVTVSS | high polyreactivity
4 | QVQLVESGGGLVQAGGSLRLSCAASGSTFYYYGMGWYRQAPGKERELVAAINWSGGTTYYADSVKGRFTISRDNAKNTVYLQMNSLKPEDTAVYYCATEHNHLGYYYWGQGTQVTVSS | low polyreactivity
5 | QVQLVESGGGLVQAGGSLRLSCAASGRTFRGYAMGWYRQAPGKERELGAAITSSGGRTYYADSVKGRFTISRDNAKNTVYLQMNSLKPVDTAVYYCAKDYYSPRGYDYWGQGTQVTVSS | high polyreactivity
6 | QVQLVESVGGLVQAGGSLRLSCAASGRIFVYYAMGWYRQAPGKERELVAAINSSGGRTYYADSVKGRVTISRDNAKNTVSLQMNSLQPEDTAVYYCAAVYRSWTSSNGRNYWGQGTQVTVAS | high polyreactivity
7 | QVQLVESGGGLVQAGGSLRLSCAATGRTFSTNAMGGSRQAPGKERELVAAITSSGGRTYYADSVKGRFTISRDNAKNTVYLQMNSLKPEDTAVYYCAAYPWYYRGYWFGYWGQGTQVTVSS | high polyreactivity
8 | QFQLVESVRGLVQAGVSLRLSCAASGSTFNFYAMGLYRQPPGKERELVAAIRQSSGRTYYADSVKGRFTISRDNGNYTVYLQMNSLKPEDTAVYYCAAVRYNFNFKMYYWGQGTQVTVSS | high polyreactivity
9 | QDQLVESGGGLVQAGGSLRLTCAASGFTFRRNAMGWYRQAPGKERELVAAISSRGGSTYYADSVKGRFTISRDNAKNTVYLQMNSLKPEDTAVYYCAAYYVPWGTLYHLDYWGQGTQVTVSS | high polyreactivity
10 | QVQLVESGGGLVQAGGSLRLSCAASGRTFWNYAKGWYRQAPGNERELVAVIRFSDGSTYYADSVKGRFTISRDNAKNTVYLQMNSLKPEDTAVYYCAAKGPRRWGSGFDYWGQGTQVTVSS | low polyreactivity
11 | QVQLVESGGGLVQAGGSLRLSCAASGIAYTYNAMGWYRQAPGKERELVASISRTGGSTRYADSVKGRFTISRDNAKNTFYLQMNSLKPEDTAVYYCAALSWRYVKYRFDYWGQGTQVTVSS | high polyreactivity
12 | QVQLVESGGGLVQAGGSLRLSCAASGRIFGPNDMGWYRQAPGKDRELVAAISWSGSSTRYADSVKGRFTISRDNAKNTVYLQMNSLKPEDTAGYYCAADRYWHSVVRDEDYWGQGTQVTVSS | low polyreactivity
13 | QVQLVESGGGLVQAGGSLRLSCAASGSIFSYNTMGWYRQAPGKERELVASISSSGGTTYYADSVKGRFTISRDNAKNTVYLQMNSLKPEDTAVYYCAAKLRSYYSGPRYYYWGQGTQVTVSS | high polyreactivity
14 | QVQLVESGGGLVQAGGSLRLSCAASGRTFVYYAMGWYRQAPGKERELVARISSSGGRTSYADSVKGRFTISRDNAKNTVYLQMNRLKPEDTAVYYCNAGRYRAGGWGVGEGYWGQGTQVTVSS | high polyreactivity
15 | QVQLVESGGGLVQAGGSLRLSCAASGSTFRFYAMGWYRQEPGKERELVAAITSSGGSTYYADSVKGRFTISRDNAKNTVYLQMNSLKPEDTAVYYCNAYPNPVSYELDYWGQGTQVTVSS | low polyreactivity
16 | QVQLVESGGGLVQAGGSRRLSCAASGRTFWAYAMRCYRQAPGKERELVAAITASGTRTYYADSVKGRFTISRDNAMNTDYLQRNRLKPQDTAGYYCAAERIWWAHAYPTYVANDYWGQGTQGTVSS | high polyreactivity
